Experimental data published in patent US20260055182A1 (CIS BIOPHARMA, published 2026).

How the values were obtained:
[1] = target: T1, L1-CAM recombinant protein (His Tag), human (human, UniProt P32004 20-1120); assay: SPR (Biacore 8K); L1-CAM immobilised on CM5 chip, antibody as analyte
T1 construct: Bought protein; also called CD171; human L1-CAM; not shown: His tag

[2] = target: T1, L1-CAM recombinant protein (His Tag), …; assay: SPR (Biacore 8K) as in Example 6, new batch of L1-CAM on the chip
Protocol: (§1) In the SPR experiment, antigen is immobilized on sensor chip and solutions containing antibody at various concentrations are flown over the antigen. real time measurement of kinetics parameters is performed, including their on/off rates (ka and kd). Based thereon, binding affinity constant KD is determined.

[3] = target: T1, L1-CAM recombinant protein (His Tag), …; assay: GCI (Creoptix WAVEdelta); antibody captured on protein A/G, L1-CAM as analyte, 1:1 model
[4] = target: T1, L1-CAM recombinant protein (His Tag), …; assay: ELISA, human L1-CAM coated at 2 µg/ml
[5] = target: T1, L1-CAM recombinant protein (His Tag), …; assay: SPR (Biacore 8K); L1-CAM immobilised on CM5 chip, antibody as analyte; remark: listed apart in the source
Protocol: as §1

[6] = target: T1, L1-CAM recombinant protein (His Tag), …; assay: ELISA, human L1-CAM coated at 2 µg/ml; second of two values in the cell; second of two values in the cell
[7] = target: T1, L1-CAM recombinant protein (His Tag), …; assay: ELISA, human L1-CAM coated at 2 µg/ml; first of two values in the cell; first of two values in the cell
[8] = target: T1, L1-CAM recombinant protein (His Tag), …; assay: ELISA, human L1-CAM coated at 2 µg/ml; first of two values in the cell
[9] = target: T1, L1-CAM recombinant protein (His Tag), …; assay: ELISA, human L1-CAM coated at 2 µg/ml; second of two values in the cell

T1 sequence (P32004 20-1120 limits assumed): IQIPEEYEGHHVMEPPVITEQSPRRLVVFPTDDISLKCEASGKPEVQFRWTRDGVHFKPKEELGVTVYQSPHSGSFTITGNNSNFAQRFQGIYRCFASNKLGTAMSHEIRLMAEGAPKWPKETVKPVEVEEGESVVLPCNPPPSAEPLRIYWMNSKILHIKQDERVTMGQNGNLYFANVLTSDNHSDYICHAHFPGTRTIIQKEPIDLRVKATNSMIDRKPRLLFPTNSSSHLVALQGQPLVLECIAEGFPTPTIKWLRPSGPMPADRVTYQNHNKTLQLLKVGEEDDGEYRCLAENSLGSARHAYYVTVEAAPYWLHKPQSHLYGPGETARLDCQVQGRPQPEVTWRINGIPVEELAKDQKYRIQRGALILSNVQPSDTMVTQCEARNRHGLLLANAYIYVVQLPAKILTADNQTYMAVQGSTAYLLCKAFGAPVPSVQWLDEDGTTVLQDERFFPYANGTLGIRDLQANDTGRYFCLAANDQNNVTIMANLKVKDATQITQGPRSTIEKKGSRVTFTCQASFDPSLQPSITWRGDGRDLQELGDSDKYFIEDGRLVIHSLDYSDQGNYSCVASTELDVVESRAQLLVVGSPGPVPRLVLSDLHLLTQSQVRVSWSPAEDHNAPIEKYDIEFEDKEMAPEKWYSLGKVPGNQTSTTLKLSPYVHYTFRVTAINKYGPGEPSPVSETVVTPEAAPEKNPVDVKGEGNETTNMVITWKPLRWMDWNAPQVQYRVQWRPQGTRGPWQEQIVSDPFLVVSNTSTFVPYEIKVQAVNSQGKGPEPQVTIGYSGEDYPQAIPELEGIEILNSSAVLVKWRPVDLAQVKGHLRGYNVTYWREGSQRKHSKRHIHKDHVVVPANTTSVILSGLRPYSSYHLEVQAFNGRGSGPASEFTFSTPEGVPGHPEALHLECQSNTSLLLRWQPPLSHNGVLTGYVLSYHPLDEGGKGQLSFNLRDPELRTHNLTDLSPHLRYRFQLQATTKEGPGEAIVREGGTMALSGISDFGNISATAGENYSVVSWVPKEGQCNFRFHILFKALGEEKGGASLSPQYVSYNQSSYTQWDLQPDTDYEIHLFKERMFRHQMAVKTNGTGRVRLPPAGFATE

Binder	Kd [1] [nM]	koff [1] [s⁻¹]	kon [1] [M⁻¹ s⁻¹]	kon [2] [M⁻¹ s⁻¹]	EC50 [4] [µg/mL]	Kd [5] [nM]	koff [5] [s⁻¹]	kon [5] [M⁻¹ s⁻¹]	further results
CE7-variant18-AG (antibody, CE7-4-34-VHA (L234A L235A P331S N297A) + CE7-3-15-VLB, aglycosylated human IgG1 kappa; N297 of IgG1 numbering is residue 319 of the entry (QYNST); also called CE7-varant18-AG) heavy: QVQLQQWGAGLLKPSETLSLTCAAYGYTFTGYWMHWIRQPPGKGLEWIGEINPSNGRTNYNERLKSRVTLSVDKSKNQASLKLSSVTAADTAVYFCARDYYGTSYNFDYWGQGTLVTVSSASTKGPSVFPLAPSSKSTSGGTAALGCLVKDYFPEPVTVSWNSGALTSGVHTFPAVLQSSGLYSLSSVVTVPSSSLGTQTYICNVNHKPSNTKVDKKVEPKSCDKTHTCPPCPAPEAAGGPSVFLFPPKPKDTLMISRTPEVTCVVVDVSHEDPEVKFNWYVDGVEVHNAKTKPREEQYASTYRVVSVLTVLHQDWLNGKEYKCKVSNKALPASIEKTISKAKGQPREPQVYTLPPSREEMTKNQVSLTCLVKGFYPSDIAVEWESNGQPENNYKTTPPVLDSDGSFFLYSKLTVDKSRWQQGNVFSCSVMHEALHNHYTQKSLSLSPGK light: not shown	0.00124	1.35e-06	1.09e+06						
CE7-variant7-AG (antibody, human IgG1, kappa, L234A L235A, N297A, CE7-1-2-VHB (L234A L235A P331S N297A) + CE7-1-NL1-VLA, aglycosylated human IgG1 kappa; also called CE7-varant7-AG; huCE7 variant 7AG) heavy: QVQLVQSGAEVKKPGASVKVSCKASGYTFTGYWMHWVRQAPGQGLEWIGEINPSNGRTNYNERFQGRVTLTVDKSISTAYMELSRLRSDDTAVYYCARDYYGTSYNFDYWGQGTLVTVSSASTKGPSVFPLAPSSKSTSGGTAALGCLVKDYFPEPVTVSWNSGALTSGVHTFPAVLQSSGLYSLSSVVTVPSSSLGTQTYICNVNHKPSNTKVDKKVEPKSCDKTHTCPPCPAPEAAGGPSVFLFPPKPKDTLMISRTPEVTCVVVDVSHEDPEVKFNWYVDGVEVHNAKTKPREEQYASTYRVVSVLTVLHQDWLNGKEYKCKVSNKALPASIEKTISKAKGQPREPQVYTLPPSREEMTKNQVSLTCLVKGFYPSDIAVEWESNGQPENNYKTTPPVLDSDGSFFLYSKLTVDKSRWQQGNVFSCSVMHEALHNHYTQKSLSLSPGK light: DIQMTQSPSSLSASVGDRVTITCKANEDINNRLAWYQQKPGKAPKLLISGATNLVTGVPSRFSGSGSGKDYTLTISSLQPEDFATYYCQQYWSTPFTFGQGTKLEIKRTVAAPSVFIFPPSDEQLKSGTASVVCLLNNFYPREAKVQWKVDNALQSGNSQESVTEQDSKDSTYSLSSTLTLSKADYEKHKVYACEVTHQGLSSPVTKSFNRGEC	< 0.00971	< 1e-05	1.03e+06	1.48e+06	0.0258				Kd [2]: 0.0238 nM; koff [2]: 3.53e-05 s⁻¹; Kd [3]: ~4 nM
CE7-variant26 (antibody, V domains shown, CE7-1-2-VHD + CE7-1-NL1-VLB; human IgG1 kappa, L234A L235A P331S N297A (aglycosylated); also called humanized variant 26) VH: QVQLVQSGAEVKKPGASVKVSCKASGYTFTGYWMHWVRQAPGQGLEWMGEINPSNGRTNYNEKFQGRVTLTVDKSISTAYMELSRLRSDDTAVYYCARDYYGTSYNFDYWGQGTLVTVSS VL: DIQMTQSPSSLSASVGDRVTITCRANEDINNRLAWYQQKPGKAPKLLISGATNLVTGVPSRFSGSGSGKDYTLTISSLQPEDFATYYCQQYWSTPFTFGQGTKLEIKR					0.0127	0.000186	1.65e-07	891000	
CE7-variant7 (antibody, also called CE7-12-VHB-1NL1-VLA; humanized variant 7) heavy: QVQLVQSGAEVKKPGASVKVSCKASGYTFTGYWMHWVRQAPGQGLEWIGEINPSNGRTNYNERFQGRVTLTVDKSISTAYMELSRLRSDDTAVYYCARDYYGTSYNFDYWGQGTLVTVSSASTKGPSVFPLAPSSKSTSGGTAALGCLVKDYFPEPVTVSWNSGALTSGVHTFPAVLQSSGLYSLSSVVTVPSSSLGTQTYICNVNHKPSNTKVDKKVEPKSCDKTHTCPPCPAPEAAGGPSVFLFPPKPKDTLMISRTPEVTCVVVDVSHEDPEVKFNWYVDGVEVHNAKTKPREEQYNSTYRVVSVLTVLHQDWLNGKEYKCKVSNKALPASIEKTISKAKGQPREPQVYTLPPSREEMTKNQVSLTCLVKGFYPSDIAVEWESNGQPENNYKTTPPVLDSDGSFFLYSKLTVDKSRWQQGNVFSCSVMHEALHNHYTQKSLSLSPGK light: DIQMTQSPSSLSASVGDRVTITCKANEDINNRLAWYQQKPGKAPKLLISGATNLVTGVPSRFSGSGSGKDYTLTISSLQPEDFATYYCQQYWSTPFTFGQGTKLEIKRTVAAPSVFIFPPSDEQLKSGTASVVCLLNNFYPREAKVQWKVDNALQSGNSQESVTEQDSKDSTYSLSSTLTLSKADYEKHKVYACEVTHQGLSSPVTKSFNRGEC						0.000896	5.51e-07	615000	EC50 [6]: 0.0327 µg/mL; EC50 [7]: 0.00958 µg/mL

Now from value to binder, other results behind:

Kd [1] [nM]	koff [1] [s⁻¹]	kon [1] [M⁻¹ s⁻¹]	kon [2] [M⁻¹ s⁻¹]	EC50 [4] [µg/mL]	Kd [5] [nM]	koff [5] [s⁻¹]	kon [5] [M⁻¹ s⁻¹]	Binder	further results
			121000					huCE7 variant LV38 (antibody, human IgG1, kappa, L234A L235A, N297A, Variant 7AG with HC WH33F, GH55A, LH309D and LC NL31A, WL92Y; also called huCE7-variant38) heavy: QVQLVQSGAEVKKPGASVKVSCKASGYTFTGYFMHWVRQAPGQGLEWIGEINPSNARTNYNERFQGRVTLTVDKSISTAYMELSRLRSDDTAVYYCARDYYGTSYNFDYWGQGTLVTVSSASTKGPSVFPLAPSSKSTSGGTAALGCLVKDYFPEPVTVSWNSGALTSGVHTFPAVLQSSGLYSLSSVVTVPSSSLGTQTYICNVNHKPSNTKVDKKVEPKSCDKTHTCPPCPAPEAAGGPSVFLFPPKPKDTLMISRTPEVTCVVVDVSHEDPEVKFNWYVDGVEVHNAKTKPREEQYASTYRVVSVLTVDHQDWLNGKEYKCKVSNKALPASIEKTISKAKGQPREPQVYTLPPSREEMTKNQVSLTCLVKGFYPSDIAVEWESNGQPENNYKTTPPVLDSDGSFFLYSKLTVDKSRWQQGNVFSCSVMHEALHNHYTQKSLSLSPGK light: DIQMTQSPSSLSASVGDRVTITCKANEDINARLAWYQQKPGKAPKLLISGATNLVTGVPSRFSGSGSGKDYTLTISSLQPEDFATYYCQQYYSTPFTFGQGTKLEIKRTVAAPSVFIFPPSDEQLKSGTASVVCLLNNFYPREAKVQWKVDNALQSGNSQESVTEQDSKDSTYSLSSTLTLSKADYEKHKVYACEVTHQGLSSPVTKSFNRGEC	Kd [2]: 0.268 nM; koff [2]: 3.23e-05 s⁻¹
				0.0701	0.046	3.62e-05	787000	CE7-variant28 (antibody, V domains shown, CE7-1-2-VHD + CE7-1-NL1-VLD; human IgG1 kappa, L234A L235A P331S N297A (aglycosylated); also called humanized variant 28) VH: QVQLVQSGAEVKKPGASVKVSCKASGYTFTGYWMHWVRQAPGQGLEWMGEINPSNGRTNYNEKFQGRVTLTVDKSISTAYMELSRLRSDDTAVYYCARDYYGTSYNFDYWGQGTLVTVSS VL: DIQMTQSPSSLSASVGDRVTITCRASQGINNRLAWYQQKPGKAPKLLISGASNLVSGVPSRFSGSGSGKDYTLTISSLQPEDFATYYCQQYWSTPFTFGQGTKLEIKR	
			1.92e+06					huCE7 variant LV42 (antibody, human IgG1, kappa, L234A L235A, N297A, Variant 7AG with HC TH307P; also called huCE7-variant42) heavy: QVQLVQSGAEVKKPGASVKVSCKASGYTFTGYWMHWVRQAPGQGLEWIGEINPSNGRTNYNERFQGRVTLTVDKSISTAYMELSRLRSDDTAVYYCARDYYGTSYNFDYWGQGTLVTVSSASTKGPSVFPLAPSSKSTSGGTAALGCLVKDYFPEPVTVSWNSGALTSGVHTFPAVLQSSGLYSLSSVVTVPSSSLGTQTYICNVNHKPSNTKVDKKVEPKSCDKTHTCPPCPAPEAAGGPSVFLFPPKPKDTLMISRTPEVTCVVVDVSHEDPEVKFNWYVDGVEVHNAKTKPREEQYASTYRVVSVLPVLHQDWLNGKEYKCKVSNKALPASIEKTISKAKGQPREPQVYTLPPSREEMTKNQVSLTCLVKGFYPSDIAVEWESNGQPENNYKTTPPVLDSDGSFFLYSKLTVDKSRWQQGNVFSCSVMHEALHNHYTQKSLSLSPGK light: DIQMTQSPSSLSASVGDRVTITCKANEDINNRLAWYQQKPGKAPKLLISGATNLVTGVPSRFSGSGSGKDYTLTISSLQPEDFATYYCQQYWSTPFTFGQGTKLEIKRTVAAPSVFIFPPSDEQLKSGTASVVCLLNNFYPREAKVQWKVDNALQSGNSQESVTEQDSKDSTYSLSSTLTLSKADYEKHKVYACEVTHQGLSSPVTKSFNRGEC	
0.0519	4.39e-05	845000						chimeric cHCE7 (antibody, V domains shown, Control antibody; also called chimeric HCE7; CE7 chimeric antibody) VH: QVQLQQPGAELVKPGASVKLSCKASGYTFTGYWMHWVKQRPGHGLEWIGEINPSNGRTNYNERFKSKATLTVDKSSTTAFMQLSGLTSEDSAVYFCARDYYGTSYNFDYWGQGTTLTVSS VL: DIQMTQSSSSFSVSLGDRVTITCKANEDINNRLAWYQQTPGNSPRLLISGATNLVTGVPSRFSGSGSGKDYTLTITSLQAEDFATYYCQQYWSTPFTFGSGTELEIK	EC50 [8]: 0.00663 µg/mL; EC50 [9]: 0.0232 µg/mL
0.12	9.59e-05	806000		0.0131				Deglycosylated cHCE7 (antibody, V domains shown, deglycosylated (so in the source); site and method not stated for this sample, also called cHCE7 degly; cHCE7 deglycosylated) VH: QVQLQQPGAELVKPGASVKLSCKASGYTFTGYWMHWVKQRPGHGLEWIGEINPSNGRTNYNERFKSKATLTVDKSSTTAFMQLSGLTSEDSAVYFCARDYYGTSYNFDYWGQGTTLTVSS VL: DIQMTQSSSSFSVSLGDRVTITCKANEDINNRLAWYQQTPGNSPRLLISGATNLVTGVPSRFSGSGSGKDYTLTITSLQAEDFATYYCQQYWSTPFTFGSGTELEIK	Kd [3]: ~4 nM
